These results are taken from the supplement of paper PMC10724198.

± gives the standard deviation of the averaged measurements.
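Further: PSI is a weighted mean of sequencing reads over stability bins, variants kept only with over 10 reads, mCherry proximal and sfGFP distal, peptide attached via GGGS linker.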

In this data set the test system is Saccharomyces cerevisiae. Kind of data set: protein stability index of tFT-peptide fusion (C-terminal peptide) (PSI (0-1 scale)); higher = more stable (slower turnover). To be noted: genetic background: wild type; temperature: 30 C. As to the method:
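Multiplexed protein stability (MPS) profiling in S. cerevisiae. Random 12-aa peptides (tFT-X12 library) are fused to the C-terminus of a sfGFP-mCherry tandem fluorescent timer, after mCherry and a GGGS linker. Cells are FACS-sorted into 8 mCherry/sfGFP bins and deep-sequenced. The protein stability index (PSI) is the read-weighted bin average, scaled from 0 (unstable) to 1 (stable). Only peptides with >10 reads are reported; cells were grown at 30 °C in SC-His with glucose.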
In turn, EIGWEGLAGRGG yielded a protein stability index of 0.754 ± 0.029.

Take EIKKKNPSTTRR: the protein stability index was found to be 0.663 ± 0.01.

Sequence EISKVRGAVDRK yielded a protein stability index of 0.689 ± 0.033.

As to EITLFELWPPGS, the protein stability index was 0.78 ± 0.03.

In the case of EKCCVNSASSFG, the protein stability index was found to be 0.646 ± 0.0098.

EKKKNTQGIKKK displayed a protein stability index of 0.685 ± 0.011.

EKKKRRASREDS: the protein stability index worked out at 0.6744 ± 0.0039.

EKKKSCIMILRK showed a protein stability index of 0.701 ± 0.039.

Sequence EKKKSKGRRKLM registered a protein stability index of 0.705 ± 0.081.

EKKRKKIYGNLK displayed a protein stability index of 0.683 ± 0.13.

EKRDKREVRPGK had a protein stability index of 0.6626 ± 0.0055.

Take EKRKEKKKRGKE: the protein stability index came to 0.797 ± 0.16.

Consider EKRQNLKPMRTV, for which the protein stability index is 0.686 ± 0.026.

On to EKSKNQKPHAAR, for which the protein stability index is 0.633 ± 0.0088.

EKTKEEKKLRTK showed a protein stability index of 0.647 ± 0.046.

EKTKEKKAKKYG yielded a protein stability index of 0.694 ± 0.027.

EKYASINSSKPP: the protein stability index is 0.671 ± 0.068.

Regarding EKYSSHPMDTRQ, the protein stability index worked out at 0.653 ± 0.013.

ELCFFISLVPDF: the protein stability index was found to be 0.642 ± 0.007.

ELEIKGRRQIKT came in with a protein stability index of 0.666 ± 0.055.

In turn, ELLKQRTRKRQK gave a protein stability index of 0.693 ± 0.021.

Turning to ELNENKKKKEHL, the protein stability index is 0.714 ± 0.12.

In turn, ELRADRTYTGIV returned a protein stability index of 0.752 ± 0.054.

The sequence ELTKNRQTVIIS gave a protein stability index of 0.635 ± 0.035.

Turning to ELTPCGNNDHAI, the protein stability index came to 0.644 ± 0.0087.

As for ELVISTGRLQKS, the protein stability index came out at 0.637 ± 0.019.

As to EMTWGSIWPERH, the protein stability index was found to be 0.731 ± 0.05.

In the case of ENCDSAEPGTRV, the protein stability index was 0.676 ± 0.033.

Take ENHPATICGFYR: the protein stability index came out at 0.767 ± 0.087.

The sequence ENPSTIDLSARS gave a protein stability index of 0.656 ± 0.04.

ENVGRASDHSLS showed a protein stability index of 0.679 ± 0.097.

Regarding EPATEGDSREHW, the protein stability index came to 0.708 ± 0.024.

With EPGQWRAASYGF, the protein stability index turned out to be 0.71 ± 0.024.

In turn, EPNRIAKYYKKY returned a protein stability index of 0.686 ± 0.16.

In turn, EPPELSISALGF gave a protein stability index of 0.6865 ± 0.0021.

In turn, EPTGEPKQKKEG yielded a protein stability index of 0.707 ± 0.035.

For EQGLRRRVFFEV, the protein stability index is 0.644 ± 0.013.

EQHTKNDQNNEP came in with a protein stability index of 0.664 ± 0.028.

Regarding ERANMSRGNQTE, the protein stability index was determined as 0.687 ± 0.025.

EREKKNKKGGCQ gave a protein stability index of 0.69 ± 0.018.

ERGALNRKDTRG came in with a protein stability index of 0.662 ± 0.023.

The sequence ERGEEGGRERRR came in with a protein stability index of 0.7 ± 0.0073.

Sequence ERGSGSVPGGRD showed a protein stability index of 0.649 ± 0.035.

ERKEERGREGKR displayed a protein stability index of 0.628 ± 0.031.

ERKEPRIQQQTL returned a protein stability index of 0.67 ± 0.075.

The sequence ERLSEYYPLIKC had a protein stability index of 0.602 ± 0.044.

For ERMVENNVKGRK, the protein stability index stood at 0.6811 ± 0.0027.

The sequence ERRKGGEKGKKK registered a protein stability index of 0.691 ± 0.047.

With ERSDRLWEVSKG, the protein stability index was 0.685 ± 0.035.

Sequence ERVQTRTTANRD yielded a protein stability index of 0.639 ± 0.059.

Take ERWRVYERYARG: the protein stability index is 0.692 ± 0.058.

For ESDLNDLGQNLN, the protein stability index was 0.674 ± 0.058.

As for ESGGGGGGGRER, the protein stability index was found to be 0.5726 ± 0.0016.

With ESIGCINIRMRG, the protein stability index was determined as 0.694 ± 0.013.

Sequence ESRARCGEQAIY came in with a protein stability index of 0.641 ± 0.066.

ESTNKKKEKKNR: the protein stability index was 0.661 ± 0.04.

For the sequence ESVCFRPKCVCK, the protein stability index was 0.5929 ± 0.0046.

Take ESVKVTIAKVMK: the protein stability index is 0.708 ± 0.016.

In turn, ETRSDAVVVFTK came in with a protein stability index of 0.694 ± 0.021.

The sequence ETVLQVRRRVVR had a protein stability index of 0.6553 ± 0.0028.

For EVASMSCPVFLF, the protein stability index amounted to 0.652 ± 0.03.

With EVCAGDDIRYLV, the protein stability index amounted to 0.645 ± 0.026.

Consider EVCFVWSLGEVL, for which the protein stability index was found to be 0.623 ± 0.019.

Sequence EVCGSGCGCGLC yielded a protein stability index of 0.74 ± 0.11.
